Results on two molecules are retold here after article PMC8225817, “The mineralocorticoid receptor leads to increased expression of EGFR and T-type calcium channels that support HL-1 cell hypertrophy”.

Series [1] concerns the target T1, rhSP1 (specificity protein 1) (human, UniProt P08047 1-785). Briefly: EMSA; 10 mM Tris, 50 mM KCl, 5 mM MgCl2, 1 mM DTT, 5% glycerol, 1 mg/ml poly(dI-dC), 5 fmol probe, 30 min room temperature; pH not stated. The note with it: protein: commercial; label: biotin. On the technique in general: A gel shift assay detects complexes by their altered migration in electrophoresis.

Series [2] addresses T1, rhSP1 (specificity protein 1). Briefly: EMSA; same as -216G/-191C; 10 mM Tris, 50 mM KCl, 5 mM MgCl2, 1 mM DTT, 5% glycerol, 1 mg/ml poly(dI-dC), 5 fmol probe, 30 min room temperature; pH not stated. The note with it: protein: commercial; label: biotin.

T1 sequence (P08047 whole entry): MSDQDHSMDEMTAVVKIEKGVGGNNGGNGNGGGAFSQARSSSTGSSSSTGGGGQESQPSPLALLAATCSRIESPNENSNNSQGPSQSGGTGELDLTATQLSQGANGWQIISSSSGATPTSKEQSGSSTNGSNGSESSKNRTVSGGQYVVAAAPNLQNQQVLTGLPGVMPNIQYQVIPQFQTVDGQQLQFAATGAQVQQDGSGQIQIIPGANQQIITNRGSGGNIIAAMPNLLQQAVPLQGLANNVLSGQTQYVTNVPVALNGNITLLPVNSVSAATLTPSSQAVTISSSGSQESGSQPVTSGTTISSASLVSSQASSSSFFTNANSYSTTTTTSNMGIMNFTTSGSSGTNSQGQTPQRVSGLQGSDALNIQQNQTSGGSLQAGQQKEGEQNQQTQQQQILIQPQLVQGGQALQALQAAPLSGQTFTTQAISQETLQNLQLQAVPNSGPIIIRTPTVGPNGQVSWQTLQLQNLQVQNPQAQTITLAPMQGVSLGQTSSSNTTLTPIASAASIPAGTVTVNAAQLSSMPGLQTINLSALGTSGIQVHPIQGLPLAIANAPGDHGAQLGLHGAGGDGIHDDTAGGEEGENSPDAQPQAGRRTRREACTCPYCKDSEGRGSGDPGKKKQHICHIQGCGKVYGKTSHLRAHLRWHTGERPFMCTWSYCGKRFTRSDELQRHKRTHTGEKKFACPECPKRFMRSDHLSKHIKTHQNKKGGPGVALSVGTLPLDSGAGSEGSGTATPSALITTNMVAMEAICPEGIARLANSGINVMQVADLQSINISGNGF

B1: mMRE (-216G/-191C) (dsDNA)
DNA 1: GCAGCAGCCTCCGCCCCCCGCACGGTGTGAGCGCCCGCCGCGGCCGAGGCGGCCGGAGTCCCGAG
DNA 2: CTCGGGACTCCGGCCGCCTCGGCCGCGGCGGGCGCTCACACCGTGCGGGGGGCGGAGGCTGCTGC
Take B1: in series [1], the binding result is listed as “binds”.

B2: mMRE (-216G/-191A) (dsDNA)
DNA 1: GCAGCAGCCTCCGCCCCCCGCACGGTGTGAGCGCCCGACGCGGCCGAGGCGGCCGGAGTCCCGAG
DNA 2: CTCGGGACTCCGGCCGCCTCGGCCGCGTCGGGCGCTCACACCGTGCGGGGGGCGGAGGCTGCTGC
Regarding B2, in series [2], the binding result is on record as “binds”.
